Measurements: paper doi:10.1101/2025.06.09.658552
“And” between values parts separate entries of the source, which are not always exact repeats. Equal values may be shown once. Read-outs that look alike come from different tables or passages of the source. Each block holds one molecule with its values, some of them ahead of it.

Assays:
[1] = biological target: alpha/beta-tubulin (Saccharomyces cerevisiae) (UniProt P09733); settings: cited from earlier work
[2] = biological target: alpha/beta-tubulin (Saccharomyces cerevisiae) (UniProt P09733); settings: cited from earlier work; remark: listed apart in the source
[3] = biological target: biotinylated polymerization-blocked yeast αβ-tubulin, LR1 (β: T175R,V179R) (yeast) (UniProt P09733); experiment: BLI; biotinylated polymerization-blocked tubulin immobilised on streptavidin (SA) biosensors, OctetR8; TOG2 2.3 to 200 nM in solution; 90 mM PIPES, 10 mM NaCl, 1 mM MgCl2, 1 mM EGTA, 1 mM GTP, 0.1% BSA, 0.005% triton X-100; association 300 s, dissociation 300 s; 1:1 model, global kinetic fit and steady-state amplitudes

Molecule: Stu2 TOG1 (from UniProt P46675)
Kd [1]: 70 nM

Molecule: Stu2 TOG2 (from UniProt P46675)
Kd [2]: 160 nM

Kd [3]: 8.9 nM and 9.6 nM
koff [3]: 0.03 s⁻¹
kon [3]: 3.2e+06 M⁻¹ s⁻¹
B1: Stu2-TOG2 (318–560) (domain or fragment)
chain: MLPEETILDKLPKDFQERITSSKWKDRVEALEEFWDSVLSQTKKLKSTSQNYSNLLGIYGHIIQKDANIQAVALAAQSVELICDKLKTPGFSKDYVSLVFTPLLDRTKEKKPSVIEAIRKALLTICKYYDPLASSGRNEDMLKDILEHMKHKTPQIRMECTQLFNASMKEEKDGYSTLQRYLKDEVVPIVIQIVNDTQPAIRTIGFESFAILIKIFGMNTFVKTLEHLDNLKRKKIEETVKTL
